According to patent US20190153113A1, “CD39 VASCULAR ISOFORM TARGETING AGENTS” (INNATE PHARMA, priority 2015, published 2019):
One block for each molecule: values may come before it.

Tests used:
CD39-L3 = molecular target: T1, CD39-L3 (Homo sapiens, UniProt O75355); assay: ELISA titration on recombinant human CD39 isoforms; format: binding; details: recombinant protein coated
T1 sequence (O75355 1-529): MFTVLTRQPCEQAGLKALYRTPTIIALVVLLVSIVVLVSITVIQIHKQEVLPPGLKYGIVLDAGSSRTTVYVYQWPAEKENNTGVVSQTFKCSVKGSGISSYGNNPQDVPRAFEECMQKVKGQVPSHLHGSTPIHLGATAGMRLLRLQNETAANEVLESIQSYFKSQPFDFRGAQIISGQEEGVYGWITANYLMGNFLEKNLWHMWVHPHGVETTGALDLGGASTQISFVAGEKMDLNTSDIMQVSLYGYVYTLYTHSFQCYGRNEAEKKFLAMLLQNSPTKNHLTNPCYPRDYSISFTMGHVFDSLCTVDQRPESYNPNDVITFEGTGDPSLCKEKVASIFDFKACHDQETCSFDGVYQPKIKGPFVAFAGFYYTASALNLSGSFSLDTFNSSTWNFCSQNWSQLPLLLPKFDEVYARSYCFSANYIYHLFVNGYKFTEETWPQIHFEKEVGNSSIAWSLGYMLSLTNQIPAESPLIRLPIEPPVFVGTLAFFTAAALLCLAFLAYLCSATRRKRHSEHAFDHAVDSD
Method: (§1) Wells were washed in TBS Tween 20, and further saturated 2H at RT in TBS Blocking buffer. Dose range concentration of primary antibody was incubated in TBS blocking buffer for 2h at RT. Wells were washed in TBS Tween 20. […] Optical density was measured on Enspire at OD=450.

CD39-L2 = molecular target: T2, CD39-L2 (Homo sapiens, UniProt O75354, K202E); assay: ELISA titration on recombinant human CD39 isoforms; format: binding; details: recombinant protein coated
T2 sequence (O75354 1-484 K202E): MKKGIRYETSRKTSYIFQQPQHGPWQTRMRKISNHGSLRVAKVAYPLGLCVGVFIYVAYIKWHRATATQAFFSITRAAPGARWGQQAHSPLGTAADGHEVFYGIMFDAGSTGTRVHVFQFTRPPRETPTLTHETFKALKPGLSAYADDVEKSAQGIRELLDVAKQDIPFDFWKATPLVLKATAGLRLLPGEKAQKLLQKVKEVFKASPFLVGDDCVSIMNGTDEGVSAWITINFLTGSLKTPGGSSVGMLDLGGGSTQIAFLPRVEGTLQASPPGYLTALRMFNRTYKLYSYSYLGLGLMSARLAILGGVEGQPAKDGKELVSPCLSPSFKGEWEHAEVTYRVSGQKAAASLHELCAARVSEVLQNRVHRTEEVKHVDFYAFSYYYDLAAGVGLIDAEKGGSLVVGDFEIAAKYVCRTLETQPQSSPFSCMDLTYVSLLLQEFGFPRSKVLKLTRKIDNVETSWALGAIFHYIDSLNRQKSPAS
Method: as §1

vascular CD39 = molecular target: T3, vascular CD39 (Homo sapiens, UniProt P49961); assay: ELISA titration on recombinant human CD39 isoforms; format: binding; details: recombinant protein coated
T3 construct: recombinant human CD39-M2 extracellular domain recombinant protein; made in house; host or cells: CHO cells (secreted, purified from supernatant)
T3 sequence (P49961 38-478 limits assumed): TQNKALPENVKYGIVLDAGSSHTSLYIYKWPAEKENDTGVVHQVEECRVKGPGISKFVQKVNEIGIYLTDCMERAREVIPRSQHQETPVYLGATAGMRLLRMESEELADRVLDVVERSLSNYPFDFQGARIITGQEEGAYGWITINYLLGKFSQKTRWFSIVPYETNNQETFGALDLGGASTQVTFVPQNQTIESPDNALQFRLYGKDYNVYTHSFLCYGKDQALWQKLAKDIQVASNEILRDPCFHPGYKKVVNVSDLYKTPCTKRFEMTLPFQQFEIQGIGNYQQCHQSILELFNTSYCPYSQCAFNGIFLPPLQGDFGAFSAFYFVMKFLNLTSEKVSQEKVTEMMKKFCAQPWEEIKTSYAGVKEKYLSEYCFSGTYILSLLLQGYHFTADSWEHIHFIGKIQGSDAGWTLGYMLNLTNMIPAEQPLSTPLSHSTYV
Method: as §1

CD39-L4 = molecular target: T4, CD39-L4 (Homo sapiens, UniProt O75356); assay: ELISA titration on recombinant human CD39 isoforms; format: binding; details: recombinant protein coated
T4 sequence (O75356 25-428): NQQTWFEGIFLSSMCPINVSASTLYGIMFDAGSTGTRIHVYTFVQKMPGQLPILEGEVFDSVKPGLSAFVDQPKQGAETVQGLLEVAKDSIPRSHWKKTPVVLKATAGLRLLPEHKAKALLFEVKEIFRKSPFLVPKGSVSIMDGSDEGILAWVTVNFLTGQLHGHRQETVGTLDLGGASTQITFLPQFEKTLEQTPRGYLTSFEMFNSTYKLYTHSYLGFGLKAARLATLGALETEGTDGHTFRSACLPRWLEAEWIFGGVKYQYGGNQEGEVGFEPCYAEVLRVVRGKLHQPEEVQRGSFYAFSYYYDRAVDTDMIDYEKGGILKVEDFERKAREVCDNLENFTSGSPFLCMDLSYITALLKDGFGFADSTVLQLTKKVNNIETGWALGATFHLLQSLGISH
Method: as §1

[1] = molecular target: T5, Recombinant human CD39-L4 (NTPDase5, ENTPD5) (human, UniProt O75356 25-428); assay: ELISA on coated RechuCD39-L4, OD 450 nm [top panel CHS2-I-391]
T5 construct: Coated in ELISA
T5 sequence: T4 sequence (O75356 25-428)
Method: as §1

[2] = molecular target: T6, CD39 mutant 4 (D150A, E153S, R154A, S157K, N158A, L278F) (human, UniProt P49961 1-510); assay: flow cytometry, HEK293T cells transfected with mutant 4
T6 construct: Transfected in HEK293T cells
T6 chain: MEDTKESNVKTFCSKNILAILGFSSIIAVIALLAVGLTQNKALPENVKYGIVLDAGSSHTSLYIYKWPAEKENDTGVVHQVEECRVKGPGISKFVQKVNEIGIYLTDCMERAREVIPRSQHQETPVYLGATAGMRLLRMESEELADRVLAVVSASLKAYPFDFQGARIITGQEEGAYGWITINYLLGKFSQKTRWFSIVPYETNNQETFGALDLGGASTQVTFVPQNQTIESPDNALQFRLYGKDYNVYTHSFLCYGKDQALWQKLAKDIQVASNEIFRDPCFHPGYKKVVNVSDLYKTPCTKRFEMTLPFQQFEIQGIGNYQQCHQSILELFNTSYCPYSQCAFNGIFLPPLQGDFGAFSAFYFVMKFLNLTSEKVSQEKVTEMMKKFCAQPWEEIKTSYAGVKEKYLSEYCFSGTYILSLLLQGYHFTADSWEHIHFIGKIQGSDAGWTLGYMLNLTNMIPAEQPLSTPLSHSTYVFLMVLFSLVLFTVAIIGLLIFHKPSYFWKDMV

binding to CD39-L3 (CD39-L3): not to any of the CD39 isoforms
binding to CD39-L2 (CD39-L2): not to any of the CD39 isoforms
binding to vascular CD39 (vascular CD39): bound to the vascular CD39
binding to CD39-L4 (CD39-L4): not to any of the CD39 isoforms
B1: I-392: anti-CD39 antibody, VH SEQ ID NO: 8 and VL SEQ ID NO: 9, chimeric human IgG1 with N297Q mutation (antibody, V domains shown)
VH: QIQLVQSGPEVKKPRETVKISCKASGYTFTHYGMNWVKQAPGKGLKWMGWINTYTGEPTYADDFKGRFAFSLEASASTAYLQINNLKNEDTATYFCARRRYEGNYVFYYFDYWGQGTTLTVSS
VL: DIQMTQSPASLSASVGETVTITCRASENIYSYFSWYQQKQGKSPQLLVYTAKTLAEGVPSRFSGSGSGTQFSLKINSLQPEDFGSYYCQHHYVTPYTFGGGTKLEIK

binding result [1]: no binding (tested: 50 ug/ml)
binding result [2]: binds
B2: Antibody I-391, Fc silent recombinant chimeric human IgG1 with heavy chain N297Q mutation (antibody, V domains shown)
VH: QIQLVQSGPELKKPGETVKISCKASGYTFRNYGMNWVKQAPGKGLKWMGWINTYTGEPTYADDFKGRFAFSLATSASTAYLQISNLKNEDTATYFCARKAYYGSNYYFDYWGQGTTLTVSS
VL: DIVMTQSHKFMSTSVGDRVSITCKASQDVSTAVAWYQQKPGQSPKLLIYSASYRYTGVPDRFTGSGSGTDFTFTISTVQAEDLAVYYCQQHYTTPPYTFGGGTKLEIKR
